We go through 10 molecules from paper PMC9122904, “Insights into the client protein release mechanism of the ATP-independent chaperone Spy” (Nature Communications, 2022).

What is called Kd is the concentration at which binding is half-saturated. One may read the kon as a measure of how fast the partners come together. The term koff denotes the first-order rate constant of dissociation.

B1: Spy_(29-138) (domain or fragment, UniProt P77754 52-161, looked up)
chain: FKDLNLTDAQKQQIREIMKGQRDQMKRPPLEERRAMHDIIASDTFDKVKAEAQIAKMEEQRKANMLAHMETQNKIYNILTPEQKKQFNANFEKRLTERPAAKGKMPATAE
notes: source: E. coli BL21 (DE3), purified (Ni-NTA, cation exchange, SEC); not shown: His6, N-terminal, cleaved; SUMO, N-terminal, cleaved
B2: carboxymethylated α-lactalbumin (natural protein, bovine, UniProt P00711 20-142, looked up)
chain: EQLTKCEVFRELKDLKGYGGVSLPEWVCTTFHTSGYDTQAIVQNNDSTEYGLFQINNKIWCKDDQNPHSSNICNISCDKFLDDDLTDDIMCVKKILDKVGINYWLAHKALCSEKLDQWLCEKL
modifications: carboxymethylated (residues not stated); biotin (EZ-link NHS-biotin, 1:1 molar ratio of biotin to protein)
notes: α-lactalbumin, carboxymethylated and thereby unfolded; also called unfolded α-LA

Details in all cases: both partners purified
Test [1] has as its target B2. Nature of the test: BLI; Octet RED96; client biotinylated and loaded on streptavidin sensors; Spy or Spy variant in solution at 0.25, 0.5, 1, 1.5 and 2 μM; 40 mM HEPES, 150 mM NaCl, pH 7.5; Kd calculated as koff/kon.
The target of test [2] is B2. The test is described as above. The source holds these as a separate data set.
The target of test [3] is B2. Described as above. The source holds these as a separate data set.
Test [4] has as its target T1, Spy wild type (Spy_(1-138)) (UniProt P77754 24-161).
T1 construct: Spy, ATP-independent periplasmic chaperone; also called WT; wt; source: E. coli BL21 (DE3), purified (Ni-NTA, cation exchange, SEC); not shown: His6, N-terminal, cleaved; SUMO, N-terminal, cleaved
T1 sequence (looked up): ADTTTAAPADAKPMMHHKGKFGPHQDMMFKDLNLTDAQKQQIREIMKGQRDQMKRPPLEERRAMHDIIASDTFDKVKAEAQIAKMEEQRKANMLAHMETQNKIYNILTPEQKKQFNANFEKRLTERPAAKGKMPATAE
The test is described as above.

For test [5], the target named is T1, Spy wild type (Spy_(1-138)). Described as above. The source holds these as a separate data set.
For test [6] the target is unchanged. Described as above. This is another data set of the same source.
Test [7] has as its target T2, Spy_(29-124) (UniProt P77754 52-147).
T2 construct: structured region of Spy, both disordered termini deleted; residue n is n+23 in P77754; Isotope-labelled ([15N], [13C,15N] or [2H,13C,15N]) in the NMR experiments; source: E. coli BL21 (DE3), purified (Ni-NTA, cation exchange, SEC); not shown: His6-SUMO, N-terminal, cleaved
T2 sequence (looked up): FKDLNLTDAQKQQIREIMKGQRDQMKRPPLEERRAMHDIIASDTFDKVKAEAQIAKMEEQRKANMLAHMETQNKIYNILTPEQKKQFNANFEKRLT
Nature of the test: NMR titration; 0.1 mM [15N]-Spy_(29-124) with unlabeled peptide at molar ratios 1:2 to 1:40; 2D 1H-15N HSQC; 40 mM HEPES-NaOH, 150 mM NaCl, pH 7.5, 25 °C; one-site binding model.

Test [8] deals with T3, Im7 H40W L53A I54A (UniProt Q03708 1-87, H40W | L53A | I54A, biotin (EZ-link NHS-biotin, 1:1 molar ratio of biotin to protein)).
T3 construct: Im7 (colicin E7 immunity protein), partially folded mutant; also called Im7AAW; source: purified by a similar procedure to Spy
T3 sequence: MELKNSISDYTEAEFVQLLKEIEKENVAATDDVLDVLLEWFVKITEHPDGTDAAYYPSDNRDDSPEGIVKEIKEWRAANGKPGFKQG
The test is described as follows: BLI; Octet RED96; biotinylated client loaded on streptavidin sensors; Spy or Spy variants at 0.25, 0.5, 1, 1.5 and 2 μM in 40 mM HEPES, 150 mM NaCl, pH 7.5; Kd = koff/kon. On the technique in general: Biolayer interferometry detects binding as a change in optical thickness at a sensor tip.

Test [9] has as its target T4, Spy_(29-124) (Escherichia coli K-12 substr. MG1655, UniProt P77754 52-147).
T4 construct: [15N]-labeled in the NMR titrations; also called termini-free Spy; source: E. coli BL21 (DE3), purified (Ni-NTA, cation exchange, SEC); not shown: His6, N-terminal, cleaved; SUMO, N-terminal, cleaved
T4 sequence (looked up): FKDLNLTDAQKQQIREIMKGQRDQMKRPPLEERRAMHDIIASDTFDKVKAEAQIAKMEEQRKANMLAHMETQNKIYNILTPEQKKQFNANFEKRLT
Nature of the test: NMR titration; 0.1 mM [15N]-Spy29-124 titrated with unlabeled peptide at Spy29-124:peptide 1:2 to 1:40; 1H-15N HSQC, 40 mM HEPES-NaOH, 150 mM NaCl, pH 7.5, 25 °C; global one-site fit of the CSPs of M64, H65, D66, I67, A69, K113, N116, A117, K121; saturation not reached, Kd only an estimate.

The target of test [10] is T5, Spy wild type (Escherichia coli K-12 substr. MG1655, UniProt P77754 24-161).
T5 construct: also called WT; source: E. coli BL21 (DE3), purified (Ni-NTA, cation exchange, SEC); not shown: His6, N-terminal, cleaved; SUMO, N-terminal, cleaved
T5 sequence (looked up): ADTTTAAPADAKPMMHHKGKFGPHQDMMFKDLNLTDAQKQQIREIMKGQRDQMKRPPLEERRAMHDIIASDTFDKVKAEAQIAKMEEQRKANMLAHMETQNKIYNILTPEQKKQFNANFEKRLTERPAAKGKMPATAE
The test is described as follows: BLI; Octet RED96; biotinylated client loaded on streptavidin sensors, dipped into Spy or Spy variants (0.25, 0.5, 1, 1.5, 2 uM) in 40 mM HEPES, 150 mM NaCl, pH 7.5; kon from kobs against [Spy], Kd = koff/kon.

Test [11] has as its target T6, Spy (GGGS)2 (Escherichia coli K-12 substr. MG1655, UniProt P77754 24-161, (GGGS)2 linker inserted between D26 and M27).
T6 construct: also called Spy variant with a (GGGS)2 linker inserted between D26 and M27; source: E. coli BL21 (DE3), purified (Ni-NTA, cation exchange, SEC); not shown: His6, N-terminal, cleaved; SUMO, N-terminal, cleaved
T6 sequence (looked up): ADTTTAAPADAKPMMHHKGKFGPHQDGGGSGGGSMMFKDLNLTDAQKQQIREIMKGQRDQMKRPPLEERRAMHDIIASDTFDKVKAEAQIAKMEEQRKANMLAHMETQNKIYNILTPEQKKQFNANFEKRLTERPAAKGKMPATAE
The test is described as above.

Test [12] deals with B1. The test is described as follows: BLI; Octet RED96; client biotinylated and loaded on streptavidin sensors; Spy or Spy variant in solution at 0.25, 0.5, 1, 1.5 and 2 μM; 40 mM HEPES, 150 mM NaCl, pH 7.5; Kd calculated as koff/kon.
Test [13] concerns the target B1. Described as above. The source holds these as a separate data set.
For test [14], the target named is B1. Described as above. The source holds these as a separate data set.

Regarding B1, in test [1], the Kd is 0.4 µM. Also, the kon in [2] was 145000 M⁻¹ s⁻¹. Further, the koff in test [3] is 0.0584 s⁻¹.
With B2, in test [4], the Kd is 3.36 µM. In addition, the kon in test [5] is 216000 M⁻¹ s⁻¹. For the same molecule, the off-rate constant (koff) in test [6] was 0.726 s⁻¹.

B3: Nt-pep (peptide, UniProt P77754 24-51, looked up)
peptide: ADTTTAAPADAKPMMHHKGKFGPHQDMM
notes: disordered N terminus of Spy as a free peptide; residue n is n+23 in P77754; also called peptide corresponding to Spy residues 1-28
On to B3, for which the Kd in test [7] came to 4700 µM.

B4: Spy_(21-130) (domain or fragment, UniProt P77754 44-153, looked up)
chain: FGPHQDMMFKDLNLTDAQKQQIREIMKGQRDQMKRPPLEERRAMHDIIASDTFDKVKAEAQIAKMEEQRKANMLAHMETQNKIYNILTPEQKKQFNANFEKRLTERPAAK
notes: previously characterized truncation mutant of Spy; residue n is n+23 in P77754; source: E. coli BL21 (DE3), purified (Ni-NTA, cation exchange, SEC); not shown: His6-SUMO, N-terminal, cleaved
In the case of B4, the “fold increase in koff (against Spy wild type)” value in test [8] was about 2 fold.

B5: Nt-pep (peptide)
peptide: ADTTTAAPADAKPMMHHKGKFGPHQDMM
notes: Unlabeled peptide; also called Nt-pep WT; peptide corresponding to Spy residues 1-28
For the molecule B5, the dissociation constant (Kd) in [9] is 4740 ± 160 µM.
For the molecule ADTTTAAPADAKPMMHHKGKFGPHQRMM (peptide, UniProt P77754 24-51, looked up, Spy of E. coli, residues 1-28 with D26R) [Nt-pep D26R], in test [9], the equilibrium dissociation constant (Kd) is 7040 ± 280 µM.
The same measure, in the same setting: then ADTTTAAPADAKPMMHHKGKFGPHQKMM (peptide, UniProt P77754 24-51, looked up, Spy of E. coli, residues 1-28 with D26K) [Nt-pep D26K], with 6330 ± 250 µM.

B6: Im7 H40W L53A I54A (natural protein)
chain: MELKNSISDYTEAEFVQLLKEIEKENVAATDDVLDVLLEWFVKITEHPDGTDAAYYPSDNRDDSPEGIVKEIKEWRAANGKPGFKQG
modifications: biotin (EZ-link NHS-biotin, 1:1 molar ratio of biotin to protein)
notes: Im7, colicin E7 immunity protein (gene ceiE7), partially folded mutant H40W L53A I54A; The methods say only that Im7 variants were purified by a similar procedure to Spy (His6-SUMO tag removed); also called Im7AAW; biotin-labeled Im7AAW; source: purified by a similar procedure to Spy
Take B6: in [10], the affinity, expressed as Kd, was 0.64 µM; the koff was found to be 0.178 s⁻¹; the kon came out at 276000 M⁻¹ s⁻¹. In addition, in test [11], binding was put at a Kd of 0.53 µM, the off-rate (koff) is 0.123 s⁻¹ and the kon was determined as 234000 M⁻¹ s⁻¹.

B7: Im7 wild type (natural protein)
chain: MELKNSISDYTEAEFVQLLKEIEKENVAATDDVLDVLLEHFVKITEHPDGTDLIYYPSDNRDDSPEGIVKEIKEWRAANGKPGFKQG
modifications: biotin (EZ-link NHS-biotin, 1:1 molar ratio of biotin to protein)
notes: Im7 (colicin E7 immunity protein), wild type; also called Im7 WT; Im7WT; source: purified by a similar procedure to Spy
Regarding B7, the equilibrium dissociation constant (Kd) in [12] was 0.27 µM; in [4] it was 0.47 µM. In addition, the kon in test [13] is 178000 M⁻¹ s⁻¹; in test [5], 244000 M⁻¹ s⁻¹. Further, the koff was 0.048 s⁻¹ in [14] and 0.114 s⁻¹ in test [6].

B8: Im7 L18A L19A L37A (natural protein)
chain: MELKNSISDYTEAEFVQAAKEIEKENVAATDDVLDVALEHFVKITEHPDGTDLIYYPSDNRDDSPEGIVKEIKEWRAANGKPGFKQG
modifications: biotin (EZ-link NHS-biotin, 1:1 molar ratio of biotin to protein)
notes: Im7 (colicin E7 immunity protein) with L18A L19A L37A; also called Im7A3; unfolded client; source: purified by a similar procedure to Spy
Take B8: the Kd in [12] was 0.34 µM; in [4], 0.67 µM. The kon in test [13] is 254000 M⁻¹ s⁻¹; in test [5], 299000 M⁻¹ s⁻¹. Further, the koff in test [14] was 0.087 s⁻¹; in test [6], 0.199 s⁻¹.
